Data taken from patent US20140017701A1, “CHIMERIC PDK1 KINASES” (priority 2011, published 2014).
“Also recorded” adds a separate entry of the source.

T1: GST-C1 (PKCl 131-186) / His-PKCl Δ223 interaction (Homo sapiens, UniProt P41743)
T1 sequence (P41743 233-596): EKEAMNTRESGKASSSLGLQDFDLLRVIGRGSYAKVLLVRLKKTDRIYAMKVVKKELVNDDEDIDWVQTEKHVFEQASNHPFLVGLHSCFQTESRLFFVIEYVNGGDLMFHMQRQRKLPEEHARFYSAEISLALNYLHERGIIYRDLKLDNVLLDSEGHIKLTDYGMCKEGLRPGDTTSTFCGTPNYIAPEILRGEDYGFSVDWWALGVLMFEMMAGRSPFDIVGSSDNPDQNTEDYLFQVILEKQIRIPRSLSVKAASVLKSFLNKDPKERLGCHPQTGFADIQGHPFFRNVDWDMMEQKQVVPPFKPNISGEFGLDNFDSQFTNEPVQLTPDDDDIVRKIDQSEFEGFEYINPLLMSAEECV

T2: GST-PSR-C1 (PKCl 100-185) / His-PKCl Δ223 interaction (Homo sapiens, UniProt P41743)
T2 sequence (P41743 233-596): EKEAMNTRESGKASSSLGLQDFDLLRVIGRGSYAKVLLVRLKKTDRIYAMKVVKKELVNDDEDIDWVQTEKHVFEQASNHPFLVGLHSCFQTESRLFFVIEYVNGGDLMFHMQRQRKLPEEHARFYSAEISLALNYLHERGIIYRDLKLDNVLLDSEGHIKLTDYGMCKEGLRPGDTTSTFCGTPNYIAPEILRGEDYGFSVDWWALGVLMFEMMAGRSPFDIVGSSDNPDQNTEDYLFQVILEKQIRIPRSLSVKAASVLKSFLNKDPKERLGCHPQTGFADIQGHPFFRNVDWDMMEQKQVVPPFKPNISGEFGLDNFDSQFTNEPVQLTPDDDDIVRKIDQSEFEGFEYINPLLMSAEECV

T3: PSRtide (biotin-KSIYRRGSRRWRKLYRA)
T3 chain: KSIYRRGSRRWRKLYRA

B1: GST-PKCζ wild type (1-592) (protein)
chain: MPSRTGPKMEGSGGRVRLKAHYGGDIFITSVDAATTFEELCEEVRDMCRLHQQHPLTLKWVDSEGDPCTVSSQMELEEAFRLARQCRDEGLIIHVFPSTPEQPGLPCPGEDKSIYRRGARRWRKLYRANGHLFQAKRFNRRAYCGQCSERIWGLARQGYRCINCKLLVHKRCHGLVPLTCRKHMDSVMPSQEPPVDDKNEDADLPSEETDGIAYISSSRKHDSIKDDSEDLKPVIDGMDGIKISQGLGLQDFDLIRVIGRGSYAKVLLVRLKKNDQIYAMKVVKKELVHDDEDIDWVQTEKHVFEQASSNPFLVGLHSCFQTTSRLFLVIEYVNGGDLMFHMQRQRKLPEEHARFYAAEICIALNFLHERGIIYRDLKLDNVLLDADGHIKLTDYGMCKEGLGPGDTTSTFCGTPNYIAPEILRGEEYGFSVDWWALGVLMFEMMAGRSPFDIITDNPDMNTEDYLFQVILEKPIRIPRFLSVKASHVLKGFLNKDPKERLGCRPQTGFSDIKSHAFFRSIDWDLLEKKQALPPFQPQITDDYGLDNFDTQFTSEPVQLTPDDEDAIKRIDQSEFEGFEYINPLLLSTEESV

Tests used:
PDK1 = assay: Protein kinase activity assay, PDK1; format: biochemical, human; settings: PDK1 wt / PDK1 50-359
Experimental: For the expression and purification of protein kinases fused to GST, pEBG-2T derived plasmids were transfected into 8×14.5 cm dishes containing HEK293 cells using the PEI method ([…] and […]/14.5 cm dish). The cells were lysed after 48 h in a buffer containing 50 mM Tris-HCl pH 7.5, 1 mM EGTA, 1 mM EDTA, 1% (w/v) Triton X-100, 1 mM sodium orthovanadate, […], 5 mM sodium pyrophosphate, 0.27 M sucrose, 0.1% β-mercaptoethanol, and 1 tablet of protease inhibitor cocktail per 50 ml of buffer. Lysates were frozen in liquid nitrogen and kept at −80° C. until required. Purification involved incubation of the cleared lysate with glutathione sepharose, followed by 2 washes with 0.5 M NaCl in lysis buffer, 8 washes with a buffer containing 50 mM Tris-HCl, 0.1 mM EGTA and 0.1% β-mercaptoethanol (buffer A), and a last wash with buffer A supplemented with 0.26 M sucrose. Elution was performed with this last buffer containing 20 mM glutathione and the GST-fusion protein was cleared from resin by filtration through a “SigmaPrep” spin column (Sigma). GST-fusion proteins were aliquoted, snap frozen in liquid nitrogen and kept at −80° C. until use. Purity at this stage was above 85% as estimated by SDS-PAGE and staining with Coomassie Brilliant Blue R250. PRK2 was expressed from pEBG-2T-PRK2 (Balendran, A. et al. J Biol Chem 275, 20806-13. (2000)), SGK1 from pEBG-2T-SGK1-ΔN[Ser422Asp], PKBα from pEBG-2T-PKBα[Ser473Asp] (Biondi et al., D. R. Embo J 20, 4380-90. (2001)), PKCl from pEBG-2T-PKCl and PKCζ from pEBG-2T-PKCζ. PDK1 and S6K1 were expressed in Sf9 insect cells using a baculovirus expression system from pFastBac-PDK1 and pFastBac-56K1-T2[Thr412Glu].
The protein kinase activity assays were performed essentially as previously described (Engel, M. et al. Embo J 25, 5469-80 (2006)). The assays were done in a 96-well format and 4 μl aliquots spotted on P81 phospho-cellulose papers (Whatman) using epMotion 5070 (Eppendorf), washed in 0.01% phosphoric acid, dried, and then exposed and analyzed using PhosphoImager technology (FLA-9000 Starion, Fujifilm). Atypical PKC (aPKC) activity assays were performed in a total volume of 20 μl containing 50 mM Tris-HCl pH 7.5, 0.05 mg/ml BSA, 0.1% (v/v) 2-mercaptoethanol, 10 mM MgCl2, 100 μM [γ^32P]ATP (5-50 cpm/pmol), 0.003% Brij, 30-50 ng of aPKC, and MBP (10 μM) or PSRtide (100 μM) as the substrate. After 15 min pre-incubation, the kinase reaction was started by addition of 6 μl of an ATP-Mg mix. When required, lipid activator (LA) phosphatidylserine (100 ng) or PKC lipid activator mix (1×) was included in the pre-incubation. Low basal activity and consistent activation of 1-592 PKCζ and 498 PKCζ by LA was obtained when the pre-incubation time was started by addition of the whole mix on the enzyme.
The substrates were T308tide (200 μM) for PDK1, Kemptide (100 μM) for PKA, and Crosstide (100 μM) for SGK, PKB, S6K, and PRK2. The activity assays for PKCα, β, θ, and δ were performed in the presence of PKC lipid activator mix (1×) using 3 μM of histone H1 as substrate.
The activity assays were performed in duplicates or triplicates (in the case of the temperature stability assay) with less than 10% difference between the duplicate pairs. The activity assays shown were repeated at least twice with similar results. Moreover, most of the assays shown were repeated multiple times with enzymes from independent purifications with similar results. Representative experiments are shown. […]

[1] = target: T1, GST-C1 (PKCl 131-186) / His-PKCl Δ223 interaction; assay: AlphaScreen interaction assay GST-C1 / His-PKCι Δ223; format: binding
Description: In FIG. 11 evidence is provided that the C1 domain directly interacts with the catalytic domain of PKCz. A novel assay is set-up to investigate the interaction between the C1 domain constructs fused to GST and the catalytic domain of atypical PKCs containing a 6×His-tag. The assay is based on the alphascreen technology using a donor bead coupled to anti-GST antibodies (to bind the GST-PSR-C1 or GST-C1 constructs derived from PKCl) and Ni-NTA acceptor beads that bind to His-PKCl Δ223 (catalytic domain). The interaction is measured by the emission of light from the acceptor beads that happens when the two beads are in close proximity. GST-PSR-C1 readily interacted with His-PKCl Δ223. […] PIFtide and HM polypeptides are known to interact with the PIF-pocket of AGC kinases. Thus, the assay provides evidence that polypeptides binding to the PIF-pocket displace the interaction. In addition, small compounds that inhibit both atypical PKC isoforms and have been co-crystallized with PDK1-PKCz chimera (e.g. PS315), also displace the interaction between the C1 domain and the catalytic domain. Together, the data highlight the important role of the PIF-pocket in the regulation of PKCs and the need to develop tools to improve the methods for drug development to the PIF-pocket on AGC kinases. […] Indeed modeling of the pseudosubstrate into the substrate-binding site, allows the interaction of the C1 domain with the external part of the helix α-C that is a main component of the PIF-pocket (FIG. 13). The invention further provides a method for the screening for compounds that interact with the PIF-pocket on PKC isoforms, PDK1 chimeras or other AGC kinases, as well as kits for said method and compounds identified by said method (aspects (10) to (12) of the invention).
(§1) The AlphaScreen assay was performed according to the manufacturer's general protocol (Perkin Elmer). […] Proteins and beads were incubated in the dark for 1 h 30 min at room temperature and the emission of light from the acceptor beads was measured in the EnVision reader (Perkin Elmer) and analyzed using the EnVision manager software.

[2] = target: T2, GST-PSR-C1 (PKCl 100-185) / His-PKCl Δ223 interaction; assay: AlphaScreen interaction assay GST-PSR-C1 / His-PKCι Δ223; format: binding
Description: In FIG. 11 evidence is provided that the C1 domain directly interacts with the catalytic domain of PKCz. A novel assay is set-up to investigate the interaction between the C1 domain constructs fused to GST and the catalytic domain of atypical PKCs containing a 6×His-tag. The assay is based on the alphascreen technology using a donor bead coupled to anti-GST antibodies (to bind the GST-PSR-C1 or GST-C1 constructs derived from PKCl) and Ni-NTA acceptor beads that bind to His-PKCl Δ223 (catalytic domain). The interaction is measured by the emission of light from the acceptor beads that happens when the two beads are in close proximity. GST-PSR-C1 readily interacted with His-PKCl Δ223. […] PIFtide and HM polypeptides are known to interact with the PIF-pocket of AGC kinases. Thus, the assay provides evidence that polypeptides binding to the PIF-pocket displace the interaction. […]
as §1

[3] = target: T3, PSRtide (biotin-KSIYRRGSRRWRKLYRA)

| Molecule | Effect on PDK1 activity (PDK1) | Effect on interaction of GST-C1 with His-PKCι Δ223 [1] | Effect on interaction of GST-PSR-C1 with His-PKCι Δ223 [2] | specific activity (phosphorylation of PSRtide by full length PKCζ) [3] [nmol/mg/min] |
| --- | --- | --- | --- | --- |
| O=C(O)CC(Cc1nc2cc(Cl)ccc2[nH]1)c1ccc(Cl)cc1 (stereo not shown) [PS114] | Activation |  |  |  |
| RTWALCGTPEYLAPEIILKK (activation loop of PKA) |  | not |  |  |
| VGNQLPFIGFT(P)YFRENL (VGNQLPFIGFTYFRENL) [ROCK-pHM, ROCK HM peptide phosphorylated at the HM phosphorylation site] |  | not and not able to displace | not and not able to displace |  |
| VGNQLPFIGFTYFRENL (ROCK-HM) |  | displaced; also recorded: strongly diminished | displaced; also recorded: strongly diminished |  |
| B1 |  |  |  | 60 to 80 |
